Experiment [1] addresses T1, recombinant C-terminal ApoE fragment G200-HIS (ApoE-G200-H299-10xHIS) (human, UniProt P02649 218-317).
T1 construct: also called G200-HIS fragment
The experiment in a line: second direct ELISA, G200-HIS coated at 0.1 µM. The procedure:
(§1) The screening was performed according to standard ELISA protocols. Briefly, 1 μg/ml solutions of BSA-conjugated neo-epitope peptides, recombinant C-terminal ApoE fragment, negative control peptide and full-length ApoE were prepared by dilution in PBS. 50 μl/well were added to an ELISA half-area 96 well microtiter plate, the plate was sealed with adhesive sealer and incubated over night at 4° C. After discarding the solution, the plates were blocked with 150 μl/well of protein-free blocking solution (Pierce) for 1 h at room temperature with shake (900 rpm). The plates were washed four times with washing buffer containing 0.28 mM NaH₂PO₄, 2.5 mM Na₂HPO₄, 150 mM NaCl, 0.1% TWEEN®-20 and 0.0075% Kathon CG. Generated recombinant antibodies of interest were serially diluted 3-fold with a starting dilution at 0.5 μg/ml (mixed 1:1 with dilution buffer: PBS with 0.1% BSA and 0.05% TWEEN®-20). An anti-ApoE C-terminal antibody was used as a reference antibody (ApoE E-8 mouse monoclonal, cat. no. sc-393302; Santa Cruz Biotechnology). 50 μl/well were added into the ELISA plates and incubated for 2 h at room temperature with shake (900 rpm). The plates were washed four times as described previously. […] After another wash (as described previously), 50 μl/well of K-Blue® aqueous substrate (Neogen) were added, and the reaction was stopped after 5-15 min with 50 μl/well of 0.5 M […]. The optical density at 450 nm was read using an ELISA reader (Tecan). The optical density was plotted against the antibody concentration to generate concentration-response curves (FIG. 16).
(§2) These were added in the same molarity (0.1 μM) to provide an equal number of molecules available for binding by the antibodies (BSA-coupled peptides were coated at 1 μg/ml as before).

In experiment [2] the target is T2, G200 N-terminal neo-epitope peptide GQPLQE-Acp-C (SEQ ID NO:50) conjugated to BSA (human, not fully specified (residue 8); printed as GQPLQE-Acp-C; also: C-terminal Cys conjugated to BSA carrier).
T2 construct: also called G200-BSA peptide; G200-peptide
T2 peptide: GQPLQE[Ahx]C
As to the kind of experiment: second direct ELISA, G200-BSA peptide coated at 1 µg/ml. On the procedure:
as §1, §2

For experiment [3], the target named is T1, recombinant C-terminal ApoE fragment …. As to the kind of experiment: SPR (Biacore 8K), G200-HIS amine-coupled on CM5, antibody as analyte, bivalent analyte fit (KD1).
The target in experiment [4] is T3, His-tagged recombinant full-length ApoE4, 10xHIS-ApoE4(1-299) (human, UniProt P02649 19-317).
T3 construct: also called ApoE4-FL-HIS
The experiment in a line: direct ELISA, target coated at 1 ug/ml, antibody in 3-fold dilutions from 500 ng/ml, OD 450 nm. The procedure: (§3) Selectivity evaluation of recombinant antibodies by direct ELISA: The direct ELISA described below was used to evaluate the binding selectivity of the recombinant antibodies produced in Example 11.
as §1, with “(Tecan).” for “(Tecan). The optical density was plotted against the antibody concentration to generate concentration-response curves (FIG. 16).”

Experiment [5] concerns the target T4, A199 N-terminal neo-epitope peptide AGQPLQ-Acp-C (SEQ ID NO:51) conjugated to BSA (human, not fully specified (residue 8); printed as AGQPLQ-Acp-C; also: C-terminal Cys conjugated to BSA carrier).
T4 construct: BSA carrier; also called A199-BSA peptide
T4 peptide: AGQPLQ[Ahx]C
The experiment is described as above. On the procedure: as §3
as §1, with “(Tecan).” for “(Tecan). The optical density was plotted against the antibody concentration to generate concentration-response curves (FIG. 16).”

Experiment [6] addresses T5, recombinant full-length ApoE4 (aa 1-299; SEQ ID NO:45; Abcam cat. no. ab50243) (human, UniProt P02649 19-317).
T5 construct: Bought protein; also called recombinant ApoE4 full-length protein
As to the kind of experiment: direct ELISA, second protocol; proteins coated at 0.1 uM, BSA peptides at 1 ug/ml; antibody in 3-fold dilutions from 3000 ng/ml; blank reduced OD 450 nm. The procedure:
as §1, with “Generated recombinant antibodies of interest were serially diluted 3-fold with a starting dilution at 0.5 μg/ml (mixed 1:1 with dilution buffer: PBS with 0.1% BSA and 0.05% TWEEN®-20).” left out
as §2

Non-standard residues stand in square brackets, D forms with d. No end group written: not given here. Ahx = NCCCCCC(=O)O

T5 sequence (P02649 19-317 C130R limits assumed): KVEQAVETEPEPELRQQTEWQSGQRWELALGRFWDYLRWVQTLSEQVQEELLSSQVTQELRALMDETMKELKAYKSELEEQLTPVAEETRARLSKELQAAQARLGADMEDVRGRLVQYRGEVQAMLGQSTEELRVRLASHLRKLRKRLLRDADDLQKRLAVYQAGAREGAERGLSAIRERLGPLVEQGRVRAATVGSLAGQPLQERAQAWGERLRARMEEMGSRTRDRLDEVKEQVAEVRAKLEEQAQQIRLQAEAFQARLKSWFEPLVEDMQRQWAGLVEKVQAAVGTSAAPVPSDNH
T1 sequence (P02649 other isoform, or with tags, fused parts or gaps limits assumed): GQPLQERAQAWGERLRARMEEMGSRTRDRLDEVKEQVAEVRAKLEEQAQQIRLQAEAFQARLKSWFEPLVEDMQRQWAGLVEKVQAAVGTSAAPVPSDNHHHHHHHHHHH
T3 sequence (P02649 other isoform, or with tags, fused parts or gaps limits assumed): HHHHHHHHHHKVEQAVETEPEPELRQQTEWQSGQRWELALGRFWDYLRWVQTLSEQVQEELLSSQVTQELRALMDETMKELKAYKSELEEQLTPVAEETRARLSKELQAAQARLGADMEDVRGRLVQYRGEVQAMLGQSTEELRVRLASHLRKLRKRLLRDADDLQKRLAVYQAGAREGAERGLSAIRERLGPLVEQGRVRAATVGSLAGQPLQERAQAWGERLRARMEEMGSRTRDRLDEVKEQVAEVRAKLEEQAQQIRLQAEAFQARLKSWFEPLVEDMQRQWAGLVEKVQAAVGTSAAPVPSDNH

B1: 23D5, recombinant IgG2c antibody (antibody, V domains shown)
VH: EVQLVESGGGLVKPGGSLKLSCSASGFTFSRYAMSWVRQSPEKRLEWVAEINSGGSYSFYSDTVTGRFTISRDNAKNTLFLEMSSLRSEDTAIYYCARQLSGTDYYGTDYWGQGTSVTVSS
VL: DVLMTQTPLSLPVSHGDQASISCRSSQSLLYSNGNTYLEWYLQKPGQSPKLLIYKVSNRFSGVPDRFSGSGSGTDFTLKISRVEAEDLGVYYCFQGSHVPYTFGGGTKLEIK
Take B1: the EC50 stood at 10.1 ng/mL in experiment [1] and 11.6 ng/mL in experiment [2]. Moreover, the Kd in experiment [3] stood at 299 nM. Moreover, the binding result was “no binding (tested: 500 ng/ml)” in experiment [4], “no binding (tested: 500 ng/ml)” in experiment [5] and “no binding (tested: 3000 ng/ml)” in experiment [6].

B2: 7B10, recombinant IgG2c antibody (antibody, V domains shown)
VH: AVQLVESGGGLVKPGRSLKLSCAASGFTFSSYAMSWVRQFPDKRLDWVAEISSGGGSTNYLDTVTGRFTISRDNAKNTLYLEMNSLRSEDTAMYYCARQLVGTDYYGTDYWGQGTSVTVSS
VL: DVLMTQTPLSLPVSLGDQASISCRSSQNIVYSNGNTYLEWYLQKPGQSPKLLIYKVSNRFSGVPDRFSGSGSGTDFTLKISRVEAEDLGVYYCFQGSHVPYTFGGGTKLEIK
notes: also called 7610
With B2, the EC50 amounted to 10.7 ng/mL in experiment [1] and 7.3 ng/mL in experiment [2]. In experiment [3], the Kd is 330 nM. Also, the binding result is “no binding (tested: 500 ng/ml)” in experiment [4], “no binding (tested: 500 ng/ml)” in experiment [5] and “no binding (tested: 3000 ng/ml)” in experiment [6].

B3: 28F2, recombinant IgG2c antibody (antibody, V domains shown)
VH: QIQLVQSGPDLKKPGETVKISCKASGYTFTNYAMHWMKQAPGKALKWMGWINTYTGEPTFADDFKGRFAFSLETSASTAYLQINSLKNEDMATYFCAREGYYDRSHYFDYWGQGTTLTVSS
VL: DVLMTQTPLSLPVSLGDQASISCRSSLSLVHGDGNTYLEWYLQKPGQSPKLLIYKVSNRFSGVPDRFSGSGSGTDFTLKISRVEAEDLGVYYCLQGSHIPFTFGSGTKLEIK
For B3, the results for the EC50 in experiment [1] and in experiment [2] were 21.5 ng/mL and 7.2 ng/mL, respectively. Further, in experiment [3], the Kd is 9830 nM. The figures for the binding result in experiment [4] and in experiment [6] were “no binding (tested: 500 ng/ml)” and “no binding (tested: 3000 ng/ml)”, respectively.

B4: 17G4, recombinant IgG2c antibody (antibody, V domains shown)
VH: EVQLVESGGGLVKPGGSLKLSCSASGFTFSRYAMSWVRQSPEKRLEWVAEINSGGSYSFYSDTVTGRFTISRDNAKNTLFLEMSSLRSEDTAIYYCARQLTGTDYYGTDYWGQGTSVTVSS
VL: DVLMTQTPLSLPVSHGDQASISCRSSQSLLYSNGNTYLEWYLQKPGQSPKLLIYKVSNRFSGVPDRFSGSGSGTDFTLKISRVEAEDLGVYYCFQGSHVPYTFGGGTKLEIK
Consider B4, for which the EC50 was 7.9 ng/mL in experiment [1] and 5.1 ng/mL in experiment [2]. Further, the Kd in experiment [3] was 141 nM. For the same molecule, the values for the binding result in experiment [4], in experiment [5] and in experiment [6] were “no binding (tested: 500 ng/ml)”, “no binding (tested: 500 ng/ml)” and “no binding (tested: 3000 ng/ml)”, respectively.

B5: 4E6, recombinant IgG2c antibody (antibody, V domains shown)
VH: EVQLVESGGDLVKPGGSLKLSCAASGFTFSSYAMSWVRQSPEKRLEWVAEISGSGSRDHYTDSVTGRFTVSRDNAKNTLYLEMSSLRSEDTAIYYCARQLTGTDYYGTDYWGQGTSVTVSS
VL: DVLMTQIPLSLPVSLGDQASISCRSSQSIVYSNGNTYLEWYLQRPGQSPKLLIYKVSNRFSGVPDRFSGSGSGTDFTLKISRVEAEDLGVYYCFQGSHLPYTFGGGTKLEIK
notes: also called recombinant anti-G200 antibody 4E6
In the case of B5, the EC50 in experiment [1] was 9.5 ng/mL; in experiment [2], 6.9 ng/mL. Also, the values for the binding result in experiment [4], in experiment [5] and in experiment [6] were “no binding (tested: 500 ng/ml)”, “no binding (tested: 500 ng/ml)” and “no binding (tested: 3000 ng/ml)”, respectively.

B6: 7C7, recombinant IgG2c antibody (antibody, V domains shown)
VH: EVQLVESGGGLVKPGGSLRLSCAASGFTFSSFAMSWVRQSPERRLEWVAEISRGGGYAFYSDTVTGRFTISRDNARNTLFLEMGSLRSEDTAMYYCSRQLTGTDYYAMDYWGQGTSVTVSS
VL: DVLLTQTPLSLFVSLGDQASISCRSSQSIVYTNGNTYLEWYLQKPGQSPKLLIYKVSNRFSGVPDRFSGSGSGTDFTLKISRVEAEDLGVYYCFQGSQVPYTFGGGTKLELK
Turning to B6, the EC50 in experiment [1] turned out to be 18.1 ng/mL; in experiment [2], 13 ng/mL. For the same molecule, in experiment [3], the Kd is 417 nM. Besides, the values for the binding result in experiment [5] and in experiment [6] were “no binding (tested: 500 ng/ml)” and “no binding (tested: 3000 ng/ml)”, respectively.

Values taken from patent publication US20220242939A1 (BIOARCTIC, published 2022).
